Experimental findings from PMC8360832, “Butyryl/Caproyl-CoA:Acetate CoA-transferase: cloning, expression and characterization of the key enzyme involved in medium-chain fatty acid biosynthesis” (Bioscience Reports, 2021) are described below.

Data set [1] concerns T1, CCCC(=O)SCCNC(=O)CCNC(=O)[C@H](O)C(C)(C)COP(=O)(O)OP(=O)(O)OC[C@H]1O[C@@H](n2cnc3c(N)ncnc32)[C@H](O)[C@@H]1OP(=O)(O)O.
T1 construct: full-length, N-terminal His tag, pET28a, E. coli BL21 (DE3), Ni-NTA; gene 1344 bp, 49 kDa; predicted active site GGQLDFVLGAYL 342-353; homotetramer in model only
Kind of data set: purified protein. Format: biochemical, Caproicibacterium lactatifermentans. Conditions: 200 mM sodium acetate, 100 mM potassium phosphate pH 7, 25 °C.

Data set [2] relates to T2, CCCCCC(=O)SCCNC(=O)CCNC(=O)[C@H](O)C(C)(C)COP(=O)(O)OP(=O)(O)OC[C@H]1O[C@@H](n2cnc3c(N)ncnc32)[C@H](O)[C@@H]1OP(=O)(O)O.
T2 construct: full-length, N-terminal His tag, pET28a, E. coli BL21 (DE3), Ni-NTA; gene 1344 bp, 49 kDa; predicted active site GGQLDFVLGAYL 342-353; homotetramer in model only
Kind of data set: purified protein. The note with it: 200 mM sodium acetate, 100 mM potassium phosphate pH 7, 25 °C. Format: biochemical, Caproicibacterium lactatifermentans.

Sequence of CPB6-CoAT (CCoAT) (Caproicibacterium lactatifermentans) (chain, as listed by the source): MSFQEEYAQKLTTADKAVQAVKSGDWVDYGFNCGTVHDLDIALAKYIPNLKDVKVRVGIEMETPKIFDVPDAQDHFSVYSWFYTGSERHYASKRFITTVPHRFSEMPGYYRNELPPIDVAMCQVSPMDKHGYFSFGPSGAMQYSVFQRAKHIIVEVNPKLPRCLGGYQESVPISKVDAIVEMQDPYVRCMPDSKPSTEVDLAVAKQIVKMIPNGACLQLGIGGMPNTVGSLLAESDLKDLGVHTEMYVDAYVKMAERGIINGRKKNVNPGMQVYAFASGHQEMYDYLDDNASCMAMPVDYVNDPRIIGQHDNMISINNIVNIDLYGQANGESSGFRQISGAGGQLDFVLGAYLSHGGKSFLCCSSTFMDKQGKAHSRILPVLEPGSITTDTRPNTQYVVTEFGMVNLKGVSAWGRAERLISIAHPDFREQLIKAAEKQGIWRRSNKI
Sequence of CPB6-CoAT (CCoAT) (Caproicibacterium lactatifermentans; D346H) (chain, as listed by the source D346H): as the sequence (chain, as listed by the source) above, with D346H counted along it
Sequence of CPB6-CoAT (CCoAT) (Caproicibacterium lactatifermentans; A351P) (chain, as listed by the source A351P): as the sequence (chain, as listed by the source) above, with A351P counted along it

Take “CPB6-CoAT (CCoAT) (Caproicibacterium lactatifermentans)”: in data set [1], the Km was 537 ± 10 µM, the turnover number (kcat) is 0.0968 ± 0.025 s⁻¹ and the catalytic efficiency (kcat/Km) is 180 ± 3.33 M⁻¹ s⁻¹. In addition, in data set [2], the Km is 359 ± 5.3 µM, the kcat turned out to be 0.245 ± 0.015 s⁻¹ and the catalytic efficiency (kcat/Km) was determined as 685 ± 3.33 M⁻¹ s⁻¹.
On to “CPB6-CoAT (CCoAT) (Caproicibacterium lactatifermentans; A351P)”, for which, in data set [1], the Michaelis-Menten constant (Km) came out at 623 ± 4.4 µM, the kcat is 0.0498 ± 0.015 s⁻¹ and the kcat/Km came to 80 ± 3.33 M⁻¹ s⁻¹. Further, in data set [2], the Km turned out to be 532 ± 2.5 µM, the kcat was 0.113 ± 0.02 s⁻¹ and the kcat/Km stood at 213 ± 8.33 M⁻¹ s⁻¹.
For the substance “CPB6-CoAT (CCoAT) (Caproicibacterium lactatifermentans; D346H)”, in data set [1], the Michaelis-Menten constant (Km) was found to be 747 ± 2.8 µM, the catalytic constant (kcat) stood at 0.0217 ± 0.00333 s⁻¹ and the kcat/Km came out at 28.8 ± 1.67 M⁻¹ s⁻¹. Also, in data set [2], the Km came out at 748 ± 7.9 µM, the kcat was 0.0707 ± 0.00333 s⁻¹ and the kcat/Km is 94.3 ± 1.67 M⁻¹ s⁻¹.

The term Km denotes the substrate concentration at which the rate is half of its maximum. The kcat is the number of substrate molecules converted per active site and unit of time at saturation. A word on the kcat/Km: it is the turnover number divided by the Michaelis constant.
